In US20220306705A1:
Substitutions are numbered along the chain they refer to. Values belong to the binder of their own block, whether it stands above or below them.

Assays:
Assay in all cases: cell-based or functional assay
[1] = biological target: T1, Factor G β-subunit β2 (Limulus polyphemus)
T1 sequence: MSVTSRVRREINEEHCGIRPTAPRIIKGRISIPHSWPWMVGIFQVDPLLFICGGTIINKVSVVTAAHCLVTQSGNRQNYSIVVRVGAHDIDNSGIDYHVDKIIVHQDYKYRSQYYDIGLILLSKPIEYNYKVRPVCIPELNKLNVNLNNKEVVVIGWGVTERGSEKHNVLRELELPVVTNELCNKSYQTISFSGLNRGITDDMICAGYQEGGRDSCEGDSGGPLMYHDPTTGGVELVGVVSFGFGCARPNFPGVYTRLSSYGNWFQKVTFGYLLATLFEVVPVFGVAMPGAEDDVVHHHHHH

[2] = biological target: T2, Factor G β-subunit β5 (Limulus polyphemus)
T2 sequence: T1 sequence with H167Y, G233R

[3] = biological target: T3, Factor G β-subunit βi3 (Limulus polyphemus)
T3 sequence: T1 sequence with Y79S, H167Y, G233R

[4] = biological target: T4, Factor G β-subunit βC2 (Limulus polyphemus)
T4 sequence: T1 sequence with G233R

[5] = biological target: T5, Factor G β-subunit βC1 (Limulus polyphemus)
T5 sequence: T1 sequence with Y79S, P125R, H167Y, G233R

[6] = biological target: T6, Factor G β-subunit βi2 (Limulus polyphemus)
T6 sequence: T1 sequence with Y79S, P125R, G233R

[7] = biological target: T7, Tachypleus Factor G β-subunit (Tachypleus (paragraph 383 prints 'Tachypleus polyphemus'; paragraph 8 prints Tachypleus tridentatus)) (UniProt Q27083)
T7 sequence (looked up): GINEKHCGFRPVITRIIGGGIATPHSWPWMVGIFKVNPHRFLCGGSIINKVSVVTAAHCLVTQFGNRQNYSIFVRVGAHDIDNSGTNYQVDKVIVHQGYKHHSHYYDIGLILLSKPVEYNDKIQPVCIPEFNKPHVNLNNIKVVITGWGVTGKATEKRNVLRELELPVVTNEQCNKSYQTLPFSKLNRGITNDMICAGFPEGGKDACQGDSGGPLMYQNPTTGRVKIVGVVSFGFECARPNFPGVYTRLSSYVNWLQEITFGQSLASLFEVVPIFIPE

B3: Factor G α-subunit A (protein)
chain: EPKWKLVWSDEFTNGISSDWEFETGNGPNGWGNNELQYYRRENTRVEGGKLIITAKEEDYEGFRYTSAKLKTQFNKPWKDGKIEARMSIPSFRGVWVAFWMLGDITDTDSWPSSGEIDFEEHINTNNEVRGTIHWSTSDDADTLHGRGTNTDYHIYSVEWNSSVIRWFVDGNQYFEVNIQRGATGTNAFHNNVFVILNMAIGGNWPGFNVADEAFPANMYVDYVRVYQDANTPSPVDVTHLSGYYFLQNRHSELYLDVSGSSNEDGAFLQQWPYSGNANQQFDFVHLGNKVYKIINKNSGKSLDVYELGTDNGVRIQQWSYGGGYNQQFIVQDVGDGYYKIFARSTGKLVEVADLNKDPGGKIQQWSDDGQLSGQWKLIRNKANSKLIQAESYFASSKVQLEDTSDVGGGKNVKCDNEGAWMAYKDINFPSSGTYQVEYRVASERAGGMLSLDLNAGSIVLGMLNVPSTGGLQKWTTISHTVNVSSGTYNLGISVQRPGWNINWINITKVSSQLKSIPSTNSRVIQAESYFDSSKVQLEDTSDVGGGKNVKCDTKGAWMAYKDINFPSSGSYQIEYRVASERAGGKLSLDLNAGSIVLGMLDVPSTGGWQKWTTISHTVKVDSGTYNLGIYVQQPGWNINWIKITKV
glucan-dependent protease activity of the coexpressed product: blank difference in absorbance (405 nm / 492 nm) with vs without LNT; grade A >0.1, B <=0.1 and >0.01, C <=0.01 and >0, D =0 (absorbance difference) [1]: < 0.01
glucan-dependent protease activity of the coexpressed product: blank difference in absorbance (405 nm / 492 nm) with vs without LNT; grade A >0.1, B <=0.1 and >0.01, C <=0.01 and >0, D =0 (absorbance difference) [2]: < 0.1
glucan-dependent protease activity of the coexpressed product: blank difference in absorbance (405 nm / 492 nm) with vs without LNT; grade A >0.1, B <=0.1 and >0.01, C <=0.01 and >0, D =0 (absorbance difference) [3]: 0.1
glucan-dependent protease activity of the coexpressed product: blank difference in absorbance (405 nm / 492 nm) with vs without LNT; grade A >0.1, B <=0.1 and >0.01, C <=0.01 and >0, D =0 (absorbance difference) [4]: < 0.01
glucan-dependent protease activity of the coexpressed product: blank difference in absorbance (405 nm / 492 nm) with vs without LNT; grade A >0.1, B <=0.1 and >0.01, C <=0.01 and >0, D =0 (absorbance difference) [5]: < 0.1
glucan-dependent protease activity of the coexpressed product: blank difference in absorbance (405 nm / 492 nm) with vs without LNT; grade A >0.1, B <=0.1 and >0.01, C <=0.01 and >0, D =0 (absorbance difference) [6]: 0.1

B4: Factor G α-subunit (AB547712) derived from Limulus polyphemus (protein)
chain: SQEPKWKLVWSDEFTNGISSDWEFETGNGPNGWGNNELQYYRRENTRVEGGKLIITAKEEDYEGFRYTSAKLKTQFNKPWKDGKIEARMSIPSFRGVWVAFWMLGDITDTDSWPSSGEIDFEEHINTNNEVRGTIHWSTSDDADTLHGRGTNTDYHIYSVEWNSSVIRWFVDGNQYFDVNIQRGATGTNAFHNNVFVILNMAIGGNWPGFNVADEAFPANMYVDYVRVYQDANTPSPVDVTHLSGYYFLQNRHSELYLDVSGSSNEDGAFLQQWPYSGNANQQFDFVHLGNKVYKIINKNSGKSLDVYELGTDNGVRIQQWSYGGGYNQQFIVQDVGDGYYKIFARSTGKLVEVADLNKDPGGKIQQWSDDGQLSGQWKLIRNKANSKLIQAESYFASSKVQLEDTSDVGGGKNVKCDNEGAWMAYKDINFPSSGTYQVEYRVASERAGGMLSLDLNAGSIVLGMLNVPSTGGLQKWTTISHTVNVSSGTYNLGISVQRPGWNINWINITKVSSQLKSIPSTNSRVIQAESYFDSSKVQLEDTSDVGGGKNVKCDTKGAWMAYKDINFPSSGSYQIEYRVASERAGGKLSLDLNAGSIVLGMLDVPSTGGWQKWTTISHTVKVDSGTYNLGIYVQQPGWNINWIKITKV
glucan-dependent protease activity of the coexpressed product: blank difference in absorbance (405 nm / 492 nm) with vs without LNT; grade A >0.1, B <=0.1 and >0.01, C <=0.01 and >0, D =0 (absorbance difference) [1]: 0
glucan-dependent protease activity of the coexpressed product: blank difference in absorbance (405 nm / 492 nm) with vs without LNT; grade A >0.1, B <=0.1 and >0.01, C <=0.01 and >0, D =0 (absorbance difference) [2]: 0
glucan-dependent protease activity of the coexpressed product: blank difference in absorbance (405 nm / 492 nm) with vs without LNT; grade A >0.1, B <=0.1 and >0.01, C <=0.01 and >0, D =0 (absorbance difference) [3]: 0
glucan-dependent protease activity of the coexpressed product: blank difference in absorbance (405 nm / 492 nm) with vs without LNT; grade A >0.1, B <=0.1 and >0.01, C <=0.01 and >0, D =0 (absorbance difference) [4]: 0
glucan-dependent protease activity of the coexpressed product: blank difference in absorbance (405 nm / 492 nm) with vs without LNT; grade A >0.1, B <=0.1 and >0.01, C <=0.01 and >0, D =0 (absorbance difference) [5]: 0
glucan-dependent protease activity of the coexpressed product: blank difference in absorbance (405 nm / 492 nm) with vs without LNT; grade A >0.1, B <=0.1 and >0.01, C <=0.01 and >0, D =0 (absorbance difference) [6]: 0

Other lines, results leading:

glucan-dependent protease activity of the coexpressed product: blank difference in absorbance (405 nm / 492 nm) with vs without LNT; grade A >0.1, B <=0.1 and >0.01, C <=0.01 and >0, D =0 (absorbance difference) [1]: 0.1
glucan-dependent protease activity of the coexpressed product: blank difference in absorbance (405 nm / 492 nm) with vs without LNT; grade A >0.1, B <=0.1 and >0.01, C <=0.01 and >0, D =0 (absorbance difference) [2]: 0
glucan-dependent protease activity of the coexpressed product: blank difference in absorbance (405 nm / 492 nm) with vs without LNT; grade A >0.1, B <=0.1 and >0.01, C <=0.01 and >0, D =0 (absorbance difference) [3]: < 0.01
glucan-dependent protease activity of the coexpressed product: blank difference in absorbance (405 nm / 492 nm) with vs without LNT; grade A >0.1, B <=0.1 and >0.01, C <=0.01 and >0, D =0 (absorbance difference) [4]: < 0.1
glucan-dependent protease activity of the coexpressed product: blank difference in absorbance (405 nm / 492 nm) with vs without LNT; grade A >0.1, B <=0.1 and >0.01, C <=0.01 and >0, D =0 (absorbance difference) [5]: 0
glucan-dependent protease activity of the coexpressed product: blank difference in absorbance (405 nm / 492 nm) with vs without LNT; grade A >0.1, B <=0.1 and >0.01, C <=0.01 and >0, D =0 (absorbance difference) [6]: 0
B1: Factor G α-subunit B (protein)
chain: TNWKLVWSDEFTNGISSDWEFETGNGPNGWGNNELQYYRRENARVEGGKLIITAKKEDYEGFRYTSAKLKTQFNKPWKDGKIEARMSIPSFRGVWVAFWMLGDITDTDSWPSSGEIDFKEHINTNNEVRGTIHWSTSDGAHTHHGRGTNTDYHIYSVEWNSSVIRWFVDGNQYFEVNIQRGATGTNAFHNKVFVILNMAIGGNWPGFNVADEAFPANMYVDYVRVYQDANTPSPVDVDVTDLSGYYFLQNRHSELYLDVSFSSNKDGAFLQQWPYNGNANQQFDFVHLGNNIYKITNKNSGKSLDVYNVGTENGVRIQQMPYRGSYNQQFIVQDVGDGYYKIFARNSRKLVEVADFNKDPGGKIQQWSDDGQISGQWKLIRNKVNSKVIQAESYFASLGVQLEDTSDVGGGKNVKCDTEGAWMAYKDINFPSSGSYQVEYRVASERAGGKLSLDLNAGSIVLGMLNVPSTGGWQKWTTISHTVKVDSGTYNLGIYVQRPRWNINWIKITEAPGQSKPIQRSDTDSKVIQAESYFASSKVQLEDTSDVGGGKNVKCDNEGAWMAYKDINFPSSGSYQIEYRVASERAGGKLSLDLNAGSIVLGMLDVPSTGGWQKWTTISHTVNVSSGTYNLGIYVQRAAWNINWIKITKV

glucan-dependent protease activity of the coexpressed product: blank difference in absorbance (405 nm / 492 nm) with vs without LNT; grade D = blank difference equal to 0 (legend given for Table 13) (absorbance difference) [7]: 0
B2: Tachypleus Factor G α-subunit (protein)
chain: SHEPKWQLVWSDEFTNGISSDWEFEMGNGLNGWGNNELQYYRRENAQVEGGKLVITAKREDYDGFKYTSARLKTQFDKSWKYGKIEAKMAIPSFRGVWVMFWMSGDNTNYVRWPSSGEIDFIEHRNTNNEKVRGTIHWSTPDGAHAHHNRESNTNGIDYHIYSVEWNSSIVKWFVNGNQYFEVKIQGGVNGKSAFRNKVFVILNMAIGGNWPGFDVADEAFPAKMYIDYVRVYQDASTSSPVGDTSLDGYYFVQNRHSELYLDVTDASNEDGAFLQQWSYSGNENQQFDFEHLENNVYKITNKKSGKSLDVYNFGTENGVRIQQWSYGGARNQQFTVQSVGDGYYKIIPRGSGKLVEVADFSKDAGGKIQQWSDNNQLSGQWKLIKSKSYSKLIQAESYFDSSKVQLEDTSDVGGGKNVKCDNEGAWMAYKDIDFPSSGNYRIEYRVASERAGGKLSLDLNAGSIVLGMLDVPSTGGWQKWTTISHTVNVDSGTYNLGIYVQRASWNINWIKITKIPEQSNLNQGRRNSKLIQAESYFSYSEVQLEDTLDVGGGKNVKCDKEGAWMAYKDIDFPSSGSYRVEYRVASERAGGKLSLDLNAGSIVLGMLDIPSTGGLQKWTTISHIVNVDLGTYNLGIYVQKASWNINWIRITKV
